koff data for two molecules are collected here from publication PMC9107221 (2022).

B1: Chikungunya/SL-CK1 E2 glycoprotein (natural protein)
chain: not shown

Some targets named below: TriNb-3C5 (alpaca); BiNb-2E8 (alpaca); TriNb-2E8 (alpaca); BiNb-3C5 (alpaca).
Assay in all cases: SPR
For orientation: In SPR one partner is held on a chip, and binding of the other changes the refractive index at the surface.

For test [1], the target named is B1.

For the molecule B1, the koff with TriNb-3C5 was 0.00609 s⁻¹; with BiNb-2E8, 0.000352 s⁻¹; in the test with TriNb-2E8 it was 0.00274 s⁻¹; with BiNb-3C5, 0.00549 s⁻¹.

B2: MoNb-3C5 (VHH)
VHH: AVQLVESGGGLVQAGGSLRLSCAASGRSFSAYTMAWFRQAPGKEREWMASIVRSGGPTYYADSVKDRFTISRENARNTAYLQMNSLKPEDTAVYYCAADLGWTYSRSPELFGSWGQGTQVTVSS
In turn, B2 had a koff in test [1] of 0.00991 s⁻¹.

A word on the koff: it is the first-order rate constant of dissociation.
